# Test results taken from publication PMC8849274 (Oncotarget, 2022).
# Where two headings read alike, the source gives them in different places.
# How the values were obtained:
# Assay type in all cases: in vivo
# [1] = Small animal PET/CT imaging, BxPC-3 tumors; conditions: female, mouse, tumor (BxPC-3 xenograft), iv, total radioactivity, athymic nude mice bearing BxPC-3 tumors, 3.7 MBq i.v., without blocking, n = 3, read-out: SUVmax of tumors
# Protocol: BxPC-3 cells (5 × 10^6) were inoculated in the right shoulder of female athymic nude mice 3–4 weeks before PET imaging sessions. All the experiments involving animals followed the Guidelines for Care and Use of Research Animals established by the Division of Comparative Medicine and the Animal Studies Committee of Washington University School of Medicine under protocol #20–0214. […] Mice were imaged with CT followed by static PET scans at 1, 4, and 24 h after tracer administration on an Inveon small animal PET/CT scanner (Siemens Medical Solutions, Malvern, PA, USA). Static images were collected for 20 min and reconstructed with the maximum a posteriori (MAP) reconstruction algorithm using the Inveon Reseach Workstation image display software (Siemens). Regions of interest (ROI) were selected based on co-registered anatomical CT images, and the associated radioactivity was measured using the Inveon software. The maximum standard uptake value (SUV) was calculated as the highest regional radioactivity concentration (nCi/cc) × animal weight (g)/decay-corrected amount of injected dose (nCi).
# [2] = Biodistribution in mice bearing BxPC-3 xenografts; conditions: female, athymic nude, mouse, iv, total radioactivity, BxPC-3 tumor-bearing mice, 1 h p.i.
# Excerpt: (§1) Animals were supplied by Charles River Laboratories (Wilmington, MA, USA), and were handled in compliance with the Guidelines for Care and Use of Research Animals established by the Division of Comparative Medicine and the Animal Studies Committee of Washington University School of Medicine under protocol #20–0214. Female athymic nude mice were inoculated on the right flank with 10 × 10^6 CaSki or 5 × 10^6 BxPC-3 cells. Tumors were allowed to grow until they approached approximately 100 mm^3 in volume. Radiolabeled peptides were diluted in saline to a dose of 0.37 MBq (10 μCi) per 100 μl. […] For blocking experiments, non-PEGylated peptide (100 μg in 100 μL saline) was injected ten minutes before radiotracer. Blood, lung, liver, spleen, kidney, muscle, heart, bone, and tumor were harvested. The amount of radioactivity in each organ was determined by gamma counting, and the percent injected dose per gram of tissue (% ID/g) was calculated.
# [3] = Biodistribution in mice bearing CaSki xenografts; conditions: female, athymic nude, mouse, iv, total radioactivity; for tissue uptake at 1 h: 1 h p.i.; for tissue uptake at 24 h: 24 h p.i.
# Excerpt: as §1
compound,measurement,setting,value
"CC(C)C[C@H](NC(=O)[C@H](CC(=O)O)NC(=O)CNC(=O)[C@H](CCCNC(=N)N)NC(=O)[C@H](CC(C)C)NC(=O)[C@H](CC(N)=O)NC(=O)[C@@H]1CCCN1C(=O)[C@@H](NC(=O)[C@H](C)NC(=O)[C@H](CC(N)=O)NC(=O)CCOCCOCCOCCOCCOCCOCCOCCOCCOCCOCCOCCOCCOCCOCCOCCOCCOCCOCCOCCOCCOCCOCCOCCOCCOCCOCCOCCOCCNC(=O)CN1CCN(CC(=O)O)CCN(CC(=O)O)CCN(CC(=O)O)CC1)C(C)C)C(=O)N[C@@H](CCC(N)=O)C(=O)N[C@H](C(=O)N[C@@H](CC(C)C)C(=O)N[C@@H](C)C(=O)N[C@@H](CCC(N)=O)C(=O)N[C@@H](CCCCN)C(=O)N[C@H](C(=O)N[C@@H](C)C(=O)N[C@@H](CCCNC(=N)N)C(=O)N[C@H](C(=O)NCCOCCOCCOCCOCCOCCOCCOCCOCCOCCOCCOCCOCCOCCOCCOCCOCCOCCOCCOCCOCCOCCOCCOCCOCCOCCOCCOCCOCCC(N)=O)[C@@H](C)O)C(C)C)C(C)C [[^64Cu]Cu-DOTA-(PEG28)2-A20FMDV2, metal not drawn]",SUV at 1 h,[1]; PET at 1 h,0.44 ± 0.02 SUV
same,SUV at 4 h,[1]; PET at 4 h,0.57 ± 0.15 SUV
same,SUV at 24 h,[1]; PET at 24 h,0.69 ± 0.09 SUV
same,tissue uptake at 1 h,"[2]; blood, 0.37 MBq i.v., gamma counting, mean, n = 4, read-out: Uptake in Blood",0.28 %ID/g
same,tissue uptake at 1 h,"[2]; blood, non-PEGylated A20FMDV2 100 μg injected 10 min before radiotracer, read-out: Uptake in Blood, 1 h Block",0.24 %ID/g
same,tissue uptake at 1 h,"[2]; bone, 0.37 MBq i.v., gamma counting, mean, n = 4, read-out: Uptake in Bone",0.25 %ID/g
same,tissue uptake at 1 h,"[2]; bone, non-PEGylated A20FMDV2 100 μg injected 10 min before radiotracer, read-out: Uptake in Bone, 1 h Block",0.28 %ID/g
same,tissue uptake at 1 h,"[2]; heart, 0.37 MBq i.v., gamma counting, mean, n = 4, read-out: Uptake in Heart",1.01 %ID/g
same,tissue uptake at 1 h,"[2]; heart, non-PEGylated A20FMDV2 100 μg injected 10 min before radiotracer, read-out: Uptake in Heart, 1 h Block",0.34 %ID/g
same,tissue uptake at 1 h,"[2]; 0.37 MBq i.v., gamma counting, mean, n = 4, read-out: Tumor Uptake",2.12 ± 0.83 %ID/g
same,tissue uptake at 1 h,"[2]; kidney, 0.37 MBq i.v., gamma counting, mean, n = 4, read-out: Uptake in Kidney",38 %ID/g
same,tissue uptake at 1 h,"[2]; kidney, non-PEGylated A20FMDV2 100 μg injected 10 min before radiotracer, read-out: Uptake in Kidney, 1 h Block",27.6 %ID/g
same,tissue uptake at 1 h,"[2]; liver, 0.37 MBq i.v., gamma counting, mean, n = 4, read-out: Uptake in Liver",2.79 %ID/g
same,tissue uptake at 1 h,"[2]; liver, non-PEGylated A20FMDV2 100 μg injected 10 min before radiotracer, read-out: Uptake in Liver, 1 h Block",2.59 %ID/g
same,tissue uptake at 1 h,"[2]; lung, 0.37 MBq i.v., gamma counting, mean, n = 4, read-out: Uptake in Lung",1.73 %ID/g
same,tissue uptake at 1 h,"[2]; lung, non-PEGylated A20FMDV2 100 μg injected 10 min before radiotracer, read-out: Uptake in Lung, 1 h Block",1.14 %ID/g
same,tissue uptake at 1 h,"[2]; muscle, 0.37 MBq i.v., gamma counting, mean, n = 4, read-out: Uptake in Muscle",0.62 %ID/g
same,tissue uptake at 1 h,"[2]; muscle, non-PEGylated A20FMDV2 100 μg injected 10 min before radiotracer, read-out: Uptake in Muscle, 1 h Block",0.18 %ID/g
same,tissue uptake at 1 h,"[2]; spleen, 0.37 MBq i.v., gamma counting, mean, n = 4, read-out: Uptake in Spleen",0.3 %ID/g
same,tissue uptake at 1 h,"[2]; spleen, non-PEGylated A20FMDV2 100 μg injected 10 min before radiotracer, read-out: Uptake in Spleen, 1 h Block",0.34 %ID/g
same,tissue uptake at 1 h,"[2]; tumor (BxPC-3 xenograft), non-PEGylated A20FMDV2 100 μg injected 10 min before radiotracer, read-out: Tumor uptake, 1 h Block",0.71 ± 0.16 %ID/g
same,tissue uptake at 1 h,"[3]; blood, CaSki tumor-bearing mice, 0.37 MBq i.v., gamma counting, mean, n = 4, read-out: Uptake in Blood",0.22 %ID/g
same,tissue uptake at 24 h,"[3]; blood, CaSki tumor-bearing mice, 0.37 MBq i.v., read-out: Radioactivity remaining in the blood",0.26 ± 0.07 %ID/g
same,tissue uptake at 1 h,"[3]; blood, CaSki tumor-bearing mice, non-PEGylated A20FMDV2 100 μg injected 10 min before radiotracer, read-out: Uptake in Blood, 1 h Block",0.13 %ID/g
same,tissue uptake at 1 h,"[3]; bone, CaSki tumor-bearing mice, 0.37 MBq i.v., gamma counting, mean, n = 4, read-out: Uptake in Bone",0.62 %ID/g
same,tissue uptake at 1 h,"[3]; bone, CaSki tumor-bearing mice, non-PEGylated A20FMDV2 100 μg injected 10 min before radiotracer, read-out: Uptake in Bone, 1 h Block",0.27 %ID/g
same,tissue uptake at 1 h,"[3]; heart, CaSki tumor-bearing mice, 0.37 MBq i.v., gamma counting, mean, n = 4, read-out: Uptake in Heart",0.71 %ID/g
same,tissue uptake at 1 h,"[3]; heart, CaSki tumor-bearing mice, non-PEGylated A20FMDV2 100 μg injected 10 min before radiotracer, read-out: Uptake in Heart, 1 h Block",0.58 %ID/g
same,tissue uptake at 1 h,"[3]; kidney, CaSki tumor-bearing mice, 0.37 MBq i.v., gamma counting, mean, n = 4, read-out: Uptake in Kidney",42.7 ± 4.03 %ID/g
same,tissue uptake at 4 h,"[3]; kidney, CaSki tumor-bearing mice, 0.37 MBq i.v., 4 h p.i.",37 ± 10.6 %ID/g
same,tissue uptake at 24 h,"[3]; kidney, CaSki tumor-bearing mice, 0.37 MBq i.v., read-out: Uptake in Kidney",21 ± 4.67 %ID/g
same,tissue uptake at 1 h,"[3]; kidney, CaSki tumor-bearing mice, non-PEGylated A20FMDV2 100 μg injected 10 min before radiotracer, read-out: Uptake in Kidney, 1 h Block",35.5 %ID/g
same,tissue uptake at 1 h,"[3]; liver, CaSki tumor-bearing mice, 0.37 MBq i.v., gamma counting, mean, n = 4, read-out: Uptake in Liver",1.04 %ID/g
same,tissue uptake at 1 h,"[3]; liver, CaSki tumor-bearing mice, non-PEGylated A20FMDV2 100 μg injected 10 min before radiotracer, read-out: Uptake in Liver, 1 h Block",0.94 %ID/g
same,tissue uptake at 1 h,"[3]; lung, CaSki tumor-bearing mice, 0.37 MBq i.v., gamma counting, mean, n = 4, read-out: Uptake in Lung",1.37 %ID/g
same,tissue uptake at 1 h,"[3]; lung, CaSki tumor-bearing mice, non-PEGylated A20FMDV2 100 μg injected 10 min before radiotracer, read-out: Uptake in Lung, 1 h Block",1.19 %ID/g
same,tissue uptake at 1 h,"[3]; muscle, CaSki tumor-bearing mice, 0.37 MBq i.v., gamma counting, mean, n = 4, read-out: Uptake in Muscle",0.73 %ID/g
same,tissue uptake at 1 h,"[3]; muscle, CaSki tumor-bearing mice, non-PEGylated A20FMDV2 100 μg injected 10 min before radiotracer, read-out: Uptake in Muscle, 1 h Block",0.51 %ID/g
same,tissue uptake at 1 h,"[3]; spleen, CaSki tumor-bearing mice, 0.37 MBq i.v., gamma counting, mean, n = 4, read-out: Uptake in Spleen",0.17 %ID/g
same,tissue uptake at 1 h,"[3]; spleen, CaSki tumor-bearing mice, non-PEGylated A20FMDV2 100 μg injected 10 min before radiotracer, read-out: Uptake in Spleen, 1 h Block",0.13 %ID/g
same,tissue uptake at 1 h,"[3]; tumor (CaSki xenograft), 0.37 MBq i.v., gamma counting, mean, n = 4, read-out: Tumor Uptake",0.95 ± 0.29 %ID/g
same,tissue uptake at 1 h,"[3]; tumor (CaSki xenograft), non-PEGylated A20FMDV2 100 μg injected 10 min before radiotracer, read-out: Tumor uptake, 1 h Block",0.65 ± 0.17 %ID/g
